What was measured:
[1] = tested on: MiaPaca-2 pancreatic cancer cells; details: MiaPaca-2, MTS, 72 h
Description: MiaPaCa-2 cells, obtained from the Bioresource Collection and Research Center, Hsinchu, Taiwan, and the Detroit 551 cells were cultured in Dulbecco’s modified Eagle’s medium (DMEM). All cells were grown in a humidified CO2 incubator at 37°C. Cell viability was determined by the MTS assay. In brief, cells were cultured (2,500–3,000 cells/well) in flat bottomed 96-well plates for 24 h. Serial-diluted conjugates were added to the cell media and incubated for 72 h. Culture medium was removed after 72 h followed by the addition of 100 μl of MTS and PMS mixture solution. In a humidified incubator at 37°C with 5% CO2, cells were then incubated for another 1.5 h for viable cells to convert the tetrazolium salt into formazan. The conversion to formazan was monitored at the 490-nm absorbance by a BioTek PowerWave-X Absorbance Microplate Reader. In this MTS assay, the recorded data were normalized to DMSO-treated and background controls. Using GraphPad Prism version 4 software, the IC50 value was the amount of each conjugate that caused a 50% reduction in cell viability in comparison to DMSO-treated controls.

[2] = tested on: MiaPaca-2 human pancreatic tumor; assay: In vivo anti-tumor study, MiaPaca-2 xenograft in nude mice; details: MiaPaca-2 tumor-bearing nude mice, i.v.; conjugate 4 10 mg/kg qd (5 + 5); CPT-11 40 mg/kg twice/week for 2 weeks
Description: The number of viable cells was counted with a hemocytometer with trypan blue staining under a light microscope on the day of tumor cell inoculation. Cells were suspended with phenol red free RPMI-1640 and Matrigel in a 1:1 ratio. MiaPaca-2 suspension cells (1 × 10^6 cells) were implanted subcutaneously into the left flank of the nude mice using a 1-ml syringe (needle 24G × 1 in., 0.55 × 25 mm; TERUMO). A digital caliper was used to measure tumor sizes and dimensions as the tumor volume in mm^3 was calculated with the formula: Volume = (length × width^2)/2. Tumor-bearing mice were randomized (n = 8 per group) and mean tumor volume was approximately 170 mm^3. […] Body weight and tumor size were measured twice weekly.

[3] = In vivo pharmacokinetic study, i.v., ICR mice; set-up: species or system mouse; details: male ICR mice, i.v. 5 mg/kg; for AUCSN-38: SN-38 released from the dosed conjugate; for AUCSN-38 / AUC: 0–24 h; for AUC / clearance / Vd: mouse, in vivo, iv; for AUC: intact conjugate, read-out: AUCconjugate; for clearance / Vd: n = 3; for Vd: read-out: Vss
Description: Six-week-old ICR mice, purchased from Biolasco (Taiwan), were divided into groups of three and 100 µl of dosing solution was given intravenously. Through cardiac puncture, blood sample was collected from each sacrificed animal at time points at 0.003, 0.083, 0.25, 0.5, 1, 2, 4, 6, 8, and 24 h and stored on ice (0–4°C). Plasma was separated from the blood by centrifugation at 3,000 rpm for 15 min at 4°C in a Beckman Model Allegra 6R centrifuge. Analysis of the plasma samples were done by using liquid chromatography with tandem mass spectrometry (LC/MS/MS). A gradient system was used for the separation of analyte and IS. Ammonium acetate aqueous solution (10 mM) containing 0.1% formic acid was used as mobile phase A, while mobile phase B was acetonitrile. The gradient profile was as follows: 0.0–1.1 min, 50%B; 1.2–3.7 min, 55%B–90%B; 3.8–5.0 min, 90%B–50%B at the flow rate of 1.5 ml/min. The autosampler was programmed to inject 15 µl of sample every 5 min.
Next, to address the in vivo longevities and stabilities of U-4CR and/or “clicked” conjugates, in vivo systemic pharmacokinetic studies of conjugates 4–8 were carried out in the ICR mice. One single intravenous dose of 5 mg/kg of each conjugate was given to the mice. Plasma concentrations between the intact conjugate and the active payload (released SN-38 from the conjugate) in the circulation were measured and the pharmacokinetic parameters including clearance (CL), steady-state volume of distribution (Vss), and area under the plasma concentration curve (AUC0–24h) were determined (Table 2). Since SN-38 was the cytotoxic payload, the AUC ratio between the intact conjugate and SN-38 reflected the plasma stability, as these conjugates should be capable of uncaging the payload with higher protease activities in the tumor microenvironment. We envisioned that U-4CR could be a valuable synthetic strategy that unifies several advantageous features for bioactive SMDC in vivo. In addition to installing hydrophilic moiety to increase solubility and functional groups that modulate steady-state volume of distribution of the conjugate in vivo, a facile reactive handle for payload conjugation was also included. Indeed, we observed structure–property trends among the U-4CR-derived conjugates 5–8. Since these conjugates harnessed the same exo-BCN clicked SN-38 portion, the U-4CR products between the Zn-DPA targeting ligand and other components might contribute factors that could affect their in vivo stabilities (Table 2).

[4] = tested on: ICR mice; assay: In vivo maximum tolerated dose determination (acute toxicity); set-up: species or system mouse; details: 5-day repeat dose, 1-week recovery monitoring
Description: The acute toxicity studies were determined in ICR male mice. In general, the studies were conducted using the dose of 10-50 mpk for dosing 5 consecutive days and the survival of the animals and their body weight were monitored for 14 days after first dosing.
However, acute toxicity is another important parameter to be monitored in the development of SMDC. […] Not limited by the components described within, the optimization of in vivo pharmacokinetic profiles of alternative ZnDPA-based SMDC, we anticipate that U-4CR with combinations of different components can lead to the construction of improved properties, such as decrease in the clearance rate and steady-state volume of distribution (Vss). Moreover, we envision employment of an imaging agent as one of the components can also furnish functional theranostic if desired.

SMILES: CCc1c2c(nc3ccc(OC(=O)N4CCC(N5CCCCC5)CC4)cc13)-c1cc3c(c(=O)n1C2)COC(=O)[C@]3(O)CC [CPT-11, irinotecan]
- decrease in potency towards MiaPaca-2 (IC50 ratio) compared to SN-38 [1]: ~350 fold
- tumor shrinkage [2]: not observed

SMILES: CCOP(=O)(CNC(=O)C1(N(CCCCOc2cc(CN(Cc3ccccn3)Cc3ccccn3)cc(CN(Cc3ccccn3)Cc3ccccn3)c2)C(=O)c2ccc(-c3ccc(O)cc3)cc2)CCN(C(=O)OC[C@H]2[C@@H]3CCc4nnn(CCOCCOCCN(Cc5ccc(C(=O)Oc6ccc7nc8c(c(CC)c7c6)Cn6c-8cc7c(c6=O)COC(=O)[C@]7(O)CC)cc5)C(=O)C5(c6ccc(Cl)cc6)CCCCC5)c4CC[C@@H]32)CC1)OCC [conjugate 8]
- AUCSN-38 [3]: 1,549 ng/ml*h
- difference in the AUC for the intact conjugate versus the released SN-38 within 24 h [3]: 40 fold
- AUC [3]: 62 µg·h/mL
- clearance [3]: 0.078 L/h/kg
- Vd [3]: 0.1 L/kg
- maximum tolerated dose (MTD) [4]: 30 mpk

SMILES: C/C=C/C(=O)N(CCCCOc1cc(CN(Cc2ccccn2)Cc2ccccn2)cc(CN(Cc2ccccn2)Cc2ccccn2)c1)C1(C(=O)NC(C)(C)C)CCN(C(=O)OC[C@H]2[C@@H]3CCc4nnn(CCOCCOCCN(Cc5ccc(C(=O)Oc6ccc7nc8c(c(CC)c7c6)Cn6c-8cc7c(c6=O)COC(=O)[C@]7(O)CC)cc5)C(=O)C5(c6ccc(Cl)cc6)CCCCC5)c4CC[C@@H]32)CC1 [conjugate 7]
- AUCSN-38 [3]: 1,309 ng/ml*h
- AUC [3]: 20.7 µg·h/mL
- clearance [3]: 0.498 L/h/kg
- Vd [3]: 3.6 L/kg

SMILES: CCc1c2c(nc3ccc(OC(=O)c4ccc(CN(CCOCCOCCn5nnc6c5CC[C@H]5[C@@H](CC6)[C@@H]5COC(=O)N(C)CCCC(=O)N(CCCCOc5cc(CN(Cc6ccccn6)Cc6ccccn6)cc(CN(Cc6ccccn6)Cc6ccccn6)c5)C5(C(=O)NC(C)(C)C)CCOCC5)C(=O)C5(c6ccc(Cl)cc6)CCCCC5)cc4)cc13)-c1cc3c(c(=O)n1C2)COC(=O)[C@]3(O)CC [conjugate 5]
- AUCSN-38 [3]: 696 ng·h/mL
- AUC [3]: 1.59 µg·h/mL
- clearance [3]: 3.01 L/h/kg
- Vd [3]: 18.5 L/kg

SMILES: CCc1c2c(nc3ccc(OC(=O)c4ccc(CN(CCOCCOCCn5nnc6c5CC[C@H]5[C@@H](CC6)[C@@H]5COC(=O)N5CCC(C(=O)N(CCCCOc6cc(CN(Cc7ccccn7)Cc7ccccn7)cc(CN(Cc7ccccn7)Cc7ccccn7)c6)C6(C(=O)NC(C)(C)C)CCOCC6)CC5)C(=O)C5(c6ccc(Cl)cc6)CCCCC5)cc4)cc13)-c1cc3c(c(=O)n1C2)COC(=O)[C@]3(O)CC [conjugate 6]
- AUCSN-38 [3]: 927 ng·h/mL
- AUC [3]: 6.46 µg·h/mL
- clearance [3]: 0.81 L/h/kg
- Vd [3]: 4.1 L/kg
